Measured values reported in the supplement of paper PMC10065799, “High-throughput profiling of sequence recognition by tyrosine kinases and SH2 domains using bacterial peptide display” (eLife, 2023).

Assays:
AncSZ = experiment: phosphorylation enrichment, bacterial display (enrichment ratio); higher = better substrate or ligand; peptides without Tyr show the background
EPHB1 = EPHB1 (UniProt P54762); experiment: as above
EPHB2 = EPHB2 (UniProt P29323); experiment: as above
FGFR1 = FGFR1 (UniProt P11362); experiment: as above
FGFR3 = FGFR3 (UniProt P22607); experiment: as above
Fer (mouse) = experiment: as above
Fes = Fes (UniProt P07332); experiment: as above
Fyn = Fyn (UniProt P06241); experiment: as above
Hck = Hck (UniProt P08631); experiment: as above
Jak2 = Jak2 (UniProt O60674); experiment: as above
MERTK = MERTK (UniProt Q12866); experiment: as above
c-Abl (mouse) = experiment: as above
c-Src = experiment: as above
Grb2 SH2 = Grb2 SH2 (UniProt P62993); experiment: SH2 binding enrichment of the phosphorylated peptide, bacterial display (enrichment ratio); higher = better substrate or ligand; peptides without Tyr show the background
SHP2-C SH2 = experiment: as above
c-Src SH2 = experiment: as above
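Wherever SH2 binding enrichment of the phosphorylated peptide, bacterial display is given: peptide library displayed on the E. coli surface as eCPX fusions, selected cells deep-sequenced, score is each peptide's frequency after selection divided by its frequency in the input.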
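Wherever phosphorylation enrichment, bacterial display is given: 11-residue human phosphosite peptides and single-mutation variants displayed on the E. coli surface, counted by deep sequencing, each peptide's frequency after selection divided by its frequency in the unselected input library; frequency after pTyr selection over input frequency; kinase dosed for 20-30% of maximal phosphorylation in three min.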

Fyn, sequence (P06241 whole entry, looked up): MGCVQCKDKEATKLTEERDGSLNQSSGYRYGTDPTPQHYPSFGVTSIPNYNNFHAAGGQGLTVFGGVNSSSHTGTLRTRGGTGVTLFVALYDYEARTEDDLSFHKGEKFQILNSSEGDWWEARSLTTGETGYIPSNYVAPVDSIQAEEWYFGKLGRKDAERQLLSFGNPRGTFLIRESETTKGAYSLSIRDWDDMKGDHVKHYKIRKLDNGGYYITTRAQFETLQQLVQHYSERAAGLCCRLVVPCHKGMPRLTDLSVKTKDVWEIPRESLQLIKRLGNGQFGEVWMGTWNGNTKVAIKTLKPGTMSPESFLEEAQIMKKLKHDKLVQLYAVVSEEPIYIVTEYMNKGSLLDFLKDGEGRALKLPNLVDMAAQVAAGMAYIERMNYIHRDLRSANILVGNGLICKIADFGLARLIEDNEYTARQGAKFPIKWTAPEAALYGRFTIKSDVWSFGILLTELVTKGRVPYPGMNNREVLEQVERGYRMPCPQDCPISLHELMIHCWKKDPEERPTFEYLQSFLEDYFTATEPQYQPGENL
EPHB2, sequence (P29323 whole entry, looked up): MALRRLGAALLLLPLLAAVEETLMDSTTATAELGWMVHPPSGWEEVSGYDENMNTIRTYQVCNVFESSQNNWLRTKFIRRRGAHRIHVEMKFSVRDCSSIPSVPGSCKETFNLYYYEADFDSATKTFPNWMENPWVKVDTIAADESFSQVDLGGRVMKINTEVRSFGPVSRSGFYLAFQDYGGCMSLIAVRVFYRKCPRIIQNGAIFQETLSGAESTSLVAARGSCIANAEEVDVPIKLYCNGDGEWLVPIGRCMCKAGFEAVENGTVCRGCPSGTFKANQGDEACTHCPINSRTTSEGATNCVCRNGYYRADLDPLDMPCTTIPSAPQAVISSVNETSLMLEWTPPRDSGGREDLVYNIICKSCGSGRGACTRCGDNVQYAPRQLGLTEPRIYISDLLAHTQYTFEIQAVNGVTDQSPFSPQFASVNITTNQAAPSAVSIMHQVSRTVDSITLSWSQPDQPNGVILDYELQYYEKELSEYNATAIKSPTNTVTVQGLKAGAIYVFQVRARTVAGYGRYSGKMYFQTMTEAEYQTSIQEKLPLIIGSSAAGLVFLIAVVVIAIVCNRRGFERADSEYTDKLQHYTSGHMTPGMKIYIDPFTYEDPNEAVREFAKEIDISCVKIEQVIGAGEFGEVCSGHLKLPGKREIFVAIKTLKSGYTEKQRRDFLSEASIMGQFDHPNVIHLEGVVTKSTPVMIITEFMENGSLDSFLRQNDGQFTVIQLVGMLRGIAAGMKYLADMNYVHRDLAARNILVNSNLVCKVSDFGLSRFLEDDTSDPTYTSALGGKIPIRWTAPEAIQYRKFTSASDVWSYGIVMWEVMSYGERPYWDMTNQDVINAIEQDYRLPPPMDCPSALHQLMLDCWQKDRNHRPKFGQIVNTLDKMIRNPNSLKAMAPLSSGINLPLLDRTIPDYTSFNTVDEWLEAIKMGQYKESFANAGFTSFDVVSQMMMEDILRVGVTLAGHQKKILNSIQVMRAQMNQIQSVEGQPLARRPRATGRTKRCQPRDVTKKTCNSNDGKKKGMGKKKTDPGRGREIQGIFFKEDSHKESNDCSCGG
Jak2, sequence (O60674 whole entry, looked up): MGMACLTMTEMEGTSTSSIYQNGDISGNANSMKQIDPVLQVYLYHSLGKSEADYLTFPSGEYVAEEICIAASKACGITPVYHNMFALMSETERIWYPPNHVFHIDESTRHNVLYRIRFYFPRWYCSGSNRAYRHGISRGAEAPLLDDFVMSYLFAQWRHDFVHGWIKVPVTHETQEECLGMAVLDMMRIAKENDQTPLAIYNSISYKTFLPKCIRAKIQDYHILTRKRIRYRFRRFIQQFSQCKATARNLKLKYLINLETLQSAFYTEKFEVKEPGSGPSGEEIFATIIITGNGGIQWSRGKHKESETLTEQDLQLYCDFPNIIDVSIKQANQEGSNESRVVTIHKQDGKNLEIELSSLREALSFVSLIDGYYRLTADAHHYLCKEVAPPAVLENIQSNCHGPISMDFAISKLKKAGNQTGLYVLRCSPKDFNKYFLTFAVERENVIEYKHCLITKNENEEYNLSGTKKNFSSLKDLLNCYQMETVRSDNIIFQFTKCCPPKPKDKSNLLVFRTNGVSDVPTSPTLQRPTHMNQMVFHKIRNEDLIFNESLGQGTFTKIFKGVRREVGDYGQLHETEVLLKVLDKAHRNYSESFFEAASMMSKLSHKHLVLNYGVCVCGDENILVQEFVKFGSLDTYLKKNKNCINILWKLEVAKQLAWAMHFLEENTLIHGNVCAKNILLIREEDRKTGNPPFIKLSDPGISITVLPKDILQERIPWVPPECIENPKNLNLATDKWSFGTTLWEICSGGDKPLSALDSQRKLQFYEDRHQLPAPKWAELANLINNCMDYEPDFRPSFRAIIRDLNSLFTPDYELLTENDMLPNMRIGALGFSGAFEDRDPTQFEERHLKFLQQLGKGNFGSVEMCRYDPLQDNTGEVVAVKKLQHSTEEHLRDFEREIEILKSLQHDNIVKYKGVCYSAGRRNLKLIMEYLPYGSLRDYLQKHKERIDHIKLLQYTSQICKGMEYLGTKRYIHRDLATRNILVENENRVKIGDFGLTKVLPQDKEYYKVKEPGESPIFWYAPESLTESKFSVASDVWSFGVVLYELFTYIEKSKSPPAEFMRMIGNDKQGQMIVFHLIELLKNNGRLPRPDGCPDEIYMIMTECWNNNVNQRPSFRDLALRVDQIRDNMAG
Fes, sequence (P07332 whole entry, looked up): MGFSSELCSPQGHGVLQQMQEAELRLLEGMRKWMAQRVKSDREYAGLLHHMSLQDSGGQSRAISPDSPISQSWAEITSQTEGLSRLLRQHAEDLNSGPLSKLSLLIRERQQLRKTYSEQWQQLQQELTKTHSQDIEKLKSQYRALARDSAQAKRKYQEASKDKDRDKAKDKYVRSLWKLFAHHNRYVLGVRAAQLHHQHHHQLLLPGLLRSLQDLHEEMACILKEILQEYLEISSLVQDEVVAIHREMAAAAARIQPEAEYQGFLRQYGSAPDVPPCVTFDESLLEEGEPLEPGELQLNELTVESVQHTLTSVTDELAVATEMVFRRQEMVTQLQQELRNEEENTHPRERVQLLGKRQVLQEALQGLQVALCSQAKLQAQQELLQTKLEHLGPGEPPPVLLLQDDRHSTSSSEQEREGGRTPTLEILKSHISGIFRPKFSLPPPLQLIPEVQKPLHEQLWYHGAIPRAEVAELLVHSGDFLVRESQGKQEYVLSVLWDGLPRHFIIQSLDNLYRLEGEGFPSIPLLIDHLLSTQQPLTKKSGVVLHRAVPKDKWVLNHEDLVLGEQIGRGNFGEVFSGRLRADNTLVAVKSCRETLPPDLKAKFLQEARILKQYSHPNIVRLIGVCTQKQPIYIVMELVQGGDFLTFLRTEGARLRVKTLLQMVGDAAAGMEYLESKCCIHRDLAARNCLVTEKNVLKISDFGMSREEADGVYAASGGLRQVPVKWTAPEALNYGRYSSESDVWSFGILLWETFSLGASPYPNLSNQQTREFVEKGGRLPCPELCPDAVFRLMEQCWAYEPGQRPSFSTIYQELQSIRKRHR
MERTK, sequence (Q12866 whole entry, looked up): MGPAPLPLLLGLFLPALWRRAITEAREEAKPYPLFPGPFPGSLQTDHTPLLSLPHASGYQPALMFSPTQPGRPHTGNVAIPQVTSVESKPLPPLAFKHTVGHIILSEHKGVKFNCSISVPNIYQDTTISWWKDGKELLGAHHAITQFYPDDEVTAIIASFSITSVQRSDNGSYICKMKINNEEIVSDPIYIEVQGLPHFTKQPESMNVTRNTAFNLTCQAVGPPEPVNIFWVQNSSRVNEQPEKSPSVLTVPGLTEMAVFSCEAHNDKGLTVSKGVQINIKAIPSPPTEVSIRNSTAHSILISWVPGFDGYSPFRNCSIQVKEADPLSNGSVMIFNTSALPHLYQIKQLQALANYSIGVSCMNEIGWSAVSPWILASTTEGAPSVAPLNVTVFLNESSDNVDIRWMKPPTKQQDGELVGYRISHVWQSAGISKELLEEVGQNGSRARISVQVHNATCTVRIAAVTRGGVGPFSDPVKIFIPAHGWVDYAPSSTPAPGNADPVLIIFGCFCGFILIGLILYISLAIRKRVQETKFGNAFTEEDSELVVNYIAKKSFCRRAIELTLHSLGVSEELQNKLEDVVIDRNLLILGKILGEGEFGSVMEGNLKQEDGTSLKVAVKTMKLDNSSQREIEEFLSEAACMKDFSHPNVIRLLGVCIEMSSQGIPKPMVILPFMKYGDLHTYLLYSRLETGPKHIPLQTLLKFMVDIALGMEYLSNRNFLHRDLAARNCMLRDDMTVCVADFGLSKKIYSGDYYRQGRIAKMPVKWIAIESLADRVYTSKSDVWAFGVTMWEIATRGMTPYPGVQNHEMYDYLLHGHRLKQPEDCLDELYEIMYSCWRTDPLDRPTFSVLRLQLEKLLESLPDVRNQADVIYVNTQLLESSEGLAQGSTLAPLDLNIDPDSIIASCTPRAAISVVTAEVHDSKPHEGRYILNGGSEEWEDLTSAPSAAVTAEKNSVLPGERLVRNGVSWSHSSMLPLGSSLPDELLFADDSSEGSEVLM
Grb2 SH2, sequence (P62993 whole entry, looked up): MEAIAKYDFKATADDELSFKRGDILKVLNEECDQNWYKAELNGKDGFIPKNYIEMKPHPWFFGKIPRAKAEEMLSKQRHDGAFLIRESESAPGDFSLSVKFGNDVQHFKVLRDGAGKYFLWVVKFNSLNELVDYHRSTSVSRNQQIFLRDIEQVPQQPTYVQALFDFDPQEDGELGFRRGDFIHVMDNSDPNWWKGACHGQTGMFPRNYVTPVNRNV

Row | Sequence | phosphorylation enrichment (AncSZ) | phosphorylation enrichment (EPHB1) | phosphorylation enrichment (EPHB2) | phosphorylation enrichment (FGFR1) | phosphorylation enrichment (FGFR3) | phosphorylation enrichment (Fer (mouse)) | phosphorylation enrichment (Fes) | phosphorylation enrichment (Fyn) | phosphorylation enrichment (Hck) | phosphorylation enrichment (Jak2) | phosphorylation enrichment (MERTK) | phosphorylation enrichment (c-Abl (mouse)) | phosphorylation enrichment (c-Src) | SH2 binding enrichment (Grb2 SH2) | SH2 binding enrichment (SHP2-C SH2) | SH2 binding enrichment (c-Src SH2)
1 | VAHAVYQAVLS [SMG1_Y549] | 0.899 | 9.09 | 7.85 | 0.656 | 0.591 | 8.18 | 0.935 | 5.92 | 8.28 | 0.666 | 4.22 | 1.14 | 4.58 | 1.11 | 0.828 | 1.02
2 | VDGSLYETHPQ [HK1_Y417_K418E] | 1.26 | 1.5 | 2.37 | 0.441 | 0.607 | 9.06 | 0.861 | 1.13 | 2.09 | 0.653 | 1.18 | 0.541 | 0.918 | 0.828 | 0.661 | 0.503
3 | VDGSVYELHPS [GCK_Y413_K414E] | 1.56 | 2.35 | 3.42 | 0.597 | 0.676 | 16 | 1.09 | 12.1 | 8.06 | 0.981 | 3.82 | 0.94 | 9.02 | 0.944 | 1.01 | 0.743
4 | VDTFWYKFLKP [EPM2A_Y86_R91P] | 0.982 | 0.644 | 0.533 | 0.463 | 0.808 | 0.515 | 1.28 | 0.388 | 0.426 | 1.05 | 0.471 | 0.694 | 0.43 | 0.601 | 0.626 | 0.388
5 | VDTRAYLTSAT [MT-CO1_Y304_F305L] | 0.671 | 0.589 | 0.438 | 0.518 | 0.723 | 0.488 | 0.763 | 0.436 | 0.377 | 0.603 | 0.393 | 0.637 | 0.414 | 0.774 | 0.569 | 0.439
6 | VEDHDYEGGIG [TKT_Y564_Y563D] | 1.49 | 0.737 | 0.785 | 0.571 | 0.874 | 0.602 | 1.45 | 0.518 | 0.609 | 1.24 | 0.517 | 1.01 | 0.624 | 0.697 | 0.506 | 0.402
7 | VEEDTYTMPST [PTK2_Y407_D402V] | 4.74 | 0.879 | 0.675 | 0.697 | 0.984 | 0.741 | 1.31 | 6.55 | 3.5 | 1.12 | 1.6 | 1.18 | 4.81 | 0.64 | 0.648 | 0.424
8 | VEGIGYDFIPT [CBS_Y308] | 1.04 | 0.579 | 0.576 | 0.588 | 0.685 | 0.43 | 1.12 | 0.594 | 0.785 | 0.827 | 0.501 | 0.723 | 0.539 | 0.79 | 1.02 | 7.71
9 | VFAPDYIAGVS [NOB1_Y366] | 1.05 | 0.657 | 0.646 | 0.537 | 0.807 | 0.647 | 1.38 | 0.585 | 0.651 | 0.934 | 0.547 | 0.844 | 0.55 | 0.927 | 0.755 | 0.544
10 | VFGEEYEEQPR [ZMYM2_Y1033] | 1.39 | 0.585 | 0.767 | 0.614 | 0.731 | 0.514 | 1.39 | 0.534 | 0.526 | 1.23 | 0.386 | 0.709 | 0.443 | 1.01 | 0.971 | 0.679
11 | VFPATYHPDHW [EFCAB12_Y544_YF] | 0.677 | 0.678 | 0.383 | 0.467 | 0.542 | 0.347 | 0.792 | 0.469 | 0.421 | 0.629 | 0.385 | 0.604 | 0.458 | 1.04 | 0.722 | 0.519
12 | VGEGPYLLSDL [ABCC12_Y7_I9L] | 0.839 | 0.461 | 0.559 | 0.484 | 0.605 | 0.508 | 0.941 | 0.565 | 0.432 | 0.83 | 0.385 | 0.586 | 0.71 | 0.641 | 0.547 | 0.361
13 | VGGRIYIDDGL [PKLR_Y218] | 0.742 | 0.493 | 0.431 | 0.575 | 0.539 | 0.681 | 0.885 | 0.459 | 0.463 | 0.91 | 0.383 | 0.727 | 0.493 | 0.909 | 0.778 | 0.45
14 | VHNLDYFKETT [FGFR3_Y647_K650E_YF] | 0.853 | 0.469 | 0.5 | 0.597 | 0.614 | 0.438 | 0.854 | 0.437 | 0.446 | 0.723 | 0.425 | 0.598 | 0.445 | 1.11 | 0.668 | 0.457
15 | VHNLDYFKMTT [FGFR3_Y647_K650M_YF] | 1.06 | 0.456 | 0.383 | 7 | 4.21 | 0.325 | 0.653 | 0.33 | 0.394 | 7.7 | 0.356 | 0.521 | 0.397 | 0.995 | 0.556 | 0.56
16 | VIKDKYPKAHF [APTX_Y209_R213H_YF] | 0.523 | 0.285 | 0.3 | 0.38 | 0.387 | 0.355 | 0.493 | 0.389 | 0.284 | 0.534 | 0.356 | 0.514 | 0.369 | 0.999 | 1.01 | 0.766
17 | VIKDKYPKARY [APTX_Y209] | 0.728 | 0.376 | 0.417 | 0.44 | 0.551 | 0.426 | 0.699 | 0.256 | 0.373 | 0.83 | 0.38 | 0.692 | 0.454 | 1.31 | 1.05 | 1.25

Row | Sequence | phosphorylation enrichment (AncSZ) | phosphorylation enrichment (EPHB1) | phosphorylation enrichment (EPHB2) | phosphorylation enrichment (FGFR1) | phosphorylation enrichment (FGFR3) | phosphorylation enrichment (Fer (mouse)) | phosphorylation enrichment (Fes) | phosphorylation enrichment (Fyn) | phosphorylation enrichment (Hck) | phosphorylation enrichment (Jak2) | phosphorylation enrichment (MERTK) | phosphorylation enrichment (c-Abl (mouse)) | phosphorylation enrichment (c-Src) | SH2 binding enrichment (Grb2 SH2) | SH2 binding enrichment (SHP2-C SH2) | SH2 binding enrichment (c-Src SH2)
18 | VILENYGADID [DNAH5_Y596_L591V] | 1.06 | 0.555 | 0.589 | 0.557 | 0.719 | 0.492 | 1.11 | 0.653 | 0.515 | 1.13 | 0.641 | 0.674 | 0.5 | 0.739 | 0.54 | 0.454
19 | VITTLYIGFLG [KCNQ1_Y267_L262V] | 1.18 | 0.759 | 0.636 | 0.692 | 0.874 | 0.605 | 1.25 | 1.34 | 1.32 | 1.15 | 0.659 | 0.931 | 1.84 | 0.888 | 0.862 | 0.615
20 | VKGGAYNPVTV [MCCC2_Y145_Y146N] | 0.552 | 0.471 | 0.372 | 0.447 | 0.469 | 0.526 | 0.644 | 0.456 | 0.434 | 0.781 | 0.471 | 0.609 | 0.511 | 0.814 | 0.558 | 0.466
21 | VKPHRYRPGTV [H3-5_Y41] | 0.513 | 0.378 | 0.337 | 0.407 | 0.346 | 0.362 | 0.573 | 0.386 | 0.328 | 0.494 | 0.456 | 0.613 | 0.434 | 0.781 | 0.671 | 0.486
22 | VLALWYYYLTN [ZDHHC23_Y127_H132N] | 1.29 | 1.1 | 0.851 | 8.15 | 6.91 | 0.766 | 1.81 | 0.611 | 0.738 | 3.09 | 3.86 | 1.05 | 1.35 | 1.24 | 1.22 | 1.02
23 | VLPIDYYFPPQ [AR_Y552] | 4.75 | 3.48 | 3.36 | 15.4 | 12.6 | 0.694 | 1.08 | 0.687 | 0.869 | 6.26 | 2.47 | 1.06 | 1.28 | 0.962 | 0.85 | 1.03
24 | VLTSKYRGGGG [HBA1_Y141] | 0.386 | 0.475 | 0.278 | 0.332 | 0.468 | 0.374 | 0.911 | 0.366 | 0.563 | 0.454 | 0.556 | 0.494 | 0.435 | 1.39 | 0.841 | 0.524
25 | VMIFAYLLHRG [PTEN_Y138_C136Y_YF] | 0.807 | 0.447 | 0.392 | 0.383 | 0.422 | 0.378 | 0.828 | 0.352 | 0.406 | 0.739 | 0.325 | 0.781 | 0.415 | 1.59 | 1.52 | 0.837
26 | VNFDYYTVNLG [GFPT1_Y367_D366Y] | 5.81 | 6.6 | 5.41 | 15.6 | 14.5 | 6.01 | 1.25 | 5.83 | 4.22 | 9.69 | 4.02 | 1.36 | 4.7 | 1.04 | 1.46 | 0.741
27 | VNKIFYPDFIV [LIG3_Y768_YF] | 1 | 0.465 | 0.928 | 0.49 | 0.584 | 0.5 | 1.08 | 0.464 | 0.529 | 0.811 | 0.518 | 0.612 | 0.432 | 1.14 | 0.919 | 0.498
28 | VNNTVYGIDAM [EIF3J_Y143_A141T] | 0.724 | 0.479 | 0.429 | 0.512 | 0.461 | 0.423 | 0.698 | 0.907 | 0.626 | 0.696 | 0.349 | 0.616 | 0.596 | 0.984 | 0.533 | 0.564
29 | VNQSGYTLIRK [ATP6V0A2_Y688_R685Q] | 0.572 | 0.42 | 0.478 | 0.452 | 0.465 | 0.401 | 0.563 | 0.387 | 0.476 | 0.538 | 0.433 | 0.391 | 0.418 | 0.861 | 9.3 | 8.52
30 | VPANRYDLLRL [FARSB_Y72_C76R] | 0.519 | 0.424 | 0.403 | 0.414 | 0.58 | 0.452 | 0.65 | 0.39 | 0.429 | 0.54 | 0.451 | 0.498 | 0.393 | 0.765 | 0.648 | 3.31
31 | VPLLEYFWDIF [CDAN1_Y712_R714W_YF] | 1.02 | 0.455 | 0.469 | 3.61 | 2.73 | 0.439 | 1.16 | 0.449 | 0.432 | 1.12 | 0.413 | 0.666 | 0.411 | 1.8 | 2.12 | 1.68
32 | VPLLEYYRDIF [CDAN1_Y712] | 0.998 | 0.564 | 0.647 | 3.63 | 2.83 | 0.544 | 1.24 | 0.444 | 0.508 | 2.64 | 0.441 | 0.728 | 0.553 | 0.911 | 0.968 | 1.05
33 | VREIRYQGGNR [VWF_Y1570] | 0.597 | 0.329 | 0.511 | 0.378 | 0.382 | 0.402 | 0.653 | 0.421 | 0.42 | 0.968 | 0.522 | 0.615 | 0.495 | 0.539 | 0.476 | 0.391
